Laboratory results as given in PMC9398005.

How the values were obtained:
[1] = target: Drosophila Su(H) (98-523) WT (Drosophila) (UniProt P28159); assay: ITC; cofactor (RAM peptide, Hairless or SHARP) in the syringe, Su(H) or Rbpj in the cell; 50 mM sodium phosphate, 150 mM sodium chloride; 20 injections, triplicate, one site model; 25°C by the legend, 20°C by the methods
[2] = target: Drosophila Su(H) K132M (98-523) (Drosophila) (UniProt P28159); assay: ITC; RAM peptide, Hairless or SHARP in the syringe, Su(H) or Rbpj in the cell; 50 mM sodium phosphate, 150 mM sodium chloride; 20 injections of 14 uL; triplicate; one site binding model; 20°C by the methods, 25°C by the legend of Fig 6
[3] = target: Drosophila Su(H) E137V (98-523) (Drosophila) (UniProt P28159); assay: as above
[4] = target: Drosophila Su(H) WT (98-523) (Drosophila) (UniProt P28159); assay: as above

- Kd [1]: 187 nM
- Ka [2]: 1.2e+07 M⁻¹
- Ka [3]: 6.5e+06 M⁻¹
- Ka [4]: 5.4e+06 M⁻¹
- Kd [4]: 187 nM
Binder: VLSTQRKRAHGVTWFPEGFRAPAAVMSR [Drosophila Notch RAM peptide (residues 1763-1790)]
